Reference: paper PMC9884024 (2022)

B1: MdHY5 (as used in the BLI assay) (natural protein)
chain: MQEQATSSLAASSLPSSSERSSSSAFHLEVKEGMESDEEIGRVPEIGGESAGASASARENGLLAGPDQVQTAGESQRKRGRNPADKESKRLKRLLRNRVSAQQARERKKAYLNDLEVRVKELEQKNSELDERLSTLQNENQMLRHILKNTTASRRGADGGANAD
B2: MdMPK6-02G (as used in the BLI assay) (enzyme)
chain: MEGGGRSADTMMSEAAPPSQPDPNHPQQHPPPPHHAMGGVESIPATLSHGGRFIQYNIFGNVFEVTAKYKPPIMPIGKGAYGIVCSALNSETNEHVAVKKIANAFDNRIDAKRTLREIKLLRHMDHENVVAIRDIIPPPQRNFFNDVYIAYELMDTDLHQIIRSNQALSEEHCQYFLYQILRGLKYIHSANVLHRDLKPSNLLLNANCDLKICDFGLARVTSETDFMTEYVVTRWYRAPELLLNSSDYTAAIDVWSVGCIFMELMDRKPLFPGRDHVHQLRLLMELIGTPSEAELQFLNENAKRYIRQLPLYRRQSFTEKFPHVHPSAIDLVEKMLTFDPTRRITVEDALAHPYLTSLHDISDEPVCLTPFSFDFEQHALSEEQMKELIYREALAFNPEYQRQ

Experiments:
Test in all cases: BLI
[1] = molecular target: MdMPK6-15G (as used in the BLI assay) (Malus domestica (apple))
[2] = molecular target: B1
[3] = molecular target: B1

Row | Binder | Kd [1] | koff [1] | Kd [2] | koff [3]
1 | B1 | 93.9 nM | 0.00105 s⁻¹ |  | 
2 | B2 |  |  | 119 nM | 0.00355 s⁻¹
